Legend:
Assay in all cases: FACS, mutant-EGFP on HEK293F cells
[1] = target: T1, KW27-7 (human CD39 mutant, C-terminal EGFP) (human, UniProt P49961 1-510)
T1 construct: expressed on HEK293F cells; K188R and residues 190-206 substituted by KTPGGS; not shown: C-terminal EGFP fusion (vector pCMV3-GFPSpark)
T1 chain: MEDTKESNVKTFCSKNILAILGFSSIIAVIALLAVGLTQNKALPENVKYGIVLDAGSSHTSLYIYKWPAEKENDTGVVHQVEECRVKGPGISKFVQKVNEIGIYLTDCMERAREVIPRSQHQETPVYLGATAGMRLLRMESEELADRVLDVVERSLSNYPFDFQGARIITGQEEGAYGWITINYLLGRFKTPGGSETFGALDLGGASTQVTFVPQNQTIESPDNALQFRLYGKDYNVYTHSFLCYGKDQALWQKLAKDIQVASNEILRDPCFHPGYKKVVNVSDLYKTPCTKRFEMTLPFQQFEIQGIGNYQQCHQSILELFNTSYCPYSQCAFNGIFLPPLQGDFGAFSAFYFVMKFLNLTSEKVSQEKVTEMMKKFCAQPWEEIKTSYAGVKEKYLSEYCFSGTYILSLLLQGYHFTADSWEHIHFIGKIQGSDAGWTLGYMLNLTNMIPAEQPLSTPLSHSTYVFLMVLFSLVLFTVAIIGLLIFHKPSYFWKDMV
Method: (§1) Briefly, the human CD39 mutants were generated by gene synthesis and then cloned into an expression vector pCMV3-GFPSpark. The vectors containing the validated mutated sequences were prepared and transfected into HEK293F cells. Three days post transfection, the cells were collected to testing EGFP for transgene expression. A range of dosages of antibodies (start from 100 nM, 3-folds dilution, 11 points) were tested on the 20 generated mutants and stained by AlexFluor647 labelled anti-hIgG by FACS. Antibody binding was descripted as relative binding which is derived from AlexFluor647 intensity divided by GFP intensity.

[2] = target: T2, KW27-5 (human CD39 mutant, C-terminal EGFP) (human, UniProt P49961 1-510)
T2 construct: expressed on HEK293F cells; not shown: C-terminal EGFP fusion (vector pCMV3-GFPSpark)
T2 chain: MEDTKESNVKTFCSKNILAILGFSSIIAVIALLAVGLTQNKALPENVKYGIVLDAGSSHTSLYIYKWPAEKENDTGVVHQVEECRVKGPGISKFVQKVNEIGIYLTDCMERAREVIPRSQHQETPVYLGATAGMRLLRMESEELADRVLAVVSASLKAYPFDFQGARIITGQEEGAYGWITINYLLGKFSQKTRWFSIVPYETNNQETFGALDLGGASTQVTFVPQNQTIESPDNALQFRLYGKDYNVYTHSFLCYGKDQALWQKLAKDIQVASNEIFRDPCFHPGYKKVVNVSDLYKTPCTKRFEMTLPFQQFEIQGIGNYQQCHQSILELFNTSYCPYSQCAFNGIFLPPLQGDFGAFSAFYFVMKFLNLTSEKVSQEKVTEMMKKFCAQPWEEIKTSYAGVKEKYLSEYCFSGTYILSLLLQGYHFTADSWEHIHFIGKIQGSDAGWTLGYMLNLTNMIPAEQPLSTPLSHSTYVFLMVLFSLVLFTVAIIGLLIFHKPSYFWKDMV
Method: as §1

[3] = target: T3, KW27-13 (human CD39 mutant, C-terminal EGFP) (human, UniProt P49961 1-510)
T3 construct: expressed on HEK293F cells; not shown: C-terminal EGFP fusion (vector pCMV3-GFPSpark)
T3 chain: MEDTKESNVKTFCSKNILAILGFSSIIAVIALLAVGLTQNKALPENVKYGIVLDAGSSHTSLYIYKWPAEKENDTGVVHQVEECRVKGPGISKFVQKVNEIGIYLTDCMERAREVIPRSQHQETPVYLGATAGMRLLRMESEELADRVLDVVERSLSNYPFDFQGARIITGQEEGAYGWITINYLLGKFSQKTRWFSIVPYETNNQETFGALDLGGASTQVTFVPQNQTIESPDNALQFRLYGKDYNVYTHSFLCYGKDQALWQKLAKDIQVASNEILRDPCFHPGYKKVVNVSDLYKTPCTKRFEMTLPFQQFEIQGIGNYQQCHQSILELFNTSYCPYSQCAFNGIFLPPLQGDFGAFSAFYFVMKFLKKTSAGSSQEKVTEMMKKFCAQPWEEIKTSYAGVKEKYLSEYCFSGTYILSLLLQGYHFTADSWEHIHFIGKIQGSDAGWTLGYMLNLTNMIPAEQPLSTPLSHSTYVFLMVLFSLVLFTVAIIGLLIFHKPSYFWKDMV
Method: as §1

[4] = target: T4, KW27-9 (human CD39 mutant, C-terminal EGFP) (human, UniProt P49961 1-510)
T4 construct: expressed on HEK293F cells; not shown: C-terminal EGFP fusion (vector pCMV3-GFPSpark)
T4 chain: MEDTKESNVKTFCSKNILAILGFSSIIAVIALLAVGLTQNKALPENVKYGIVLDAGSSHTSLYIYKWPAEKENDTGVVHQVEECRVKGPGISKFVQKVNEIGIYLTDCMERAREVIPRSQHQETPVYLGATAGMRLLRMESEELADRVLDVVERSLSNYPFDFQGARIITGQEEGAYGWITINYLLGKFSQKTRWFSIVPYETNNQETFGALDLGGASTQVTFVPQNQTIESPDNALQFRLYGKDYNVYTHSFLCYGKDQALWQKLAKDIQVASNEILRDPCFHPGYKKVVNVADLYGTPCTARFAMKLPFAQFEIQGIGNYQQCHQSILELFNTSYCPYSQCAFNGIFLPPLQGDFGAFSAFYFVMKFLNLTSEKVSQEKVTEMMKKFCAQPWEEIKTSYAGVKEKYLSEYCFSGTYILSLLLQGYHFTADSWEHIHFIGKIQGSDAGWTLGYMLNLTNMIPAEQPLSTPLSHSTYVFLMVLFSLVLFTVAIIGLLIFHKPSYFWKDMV
Method: as §1

Measured: binding result

B1: c35 (antibody, V domains shown)
VH: EVRLQQSGAELVKPGASVKLSCTASGFNIEDTYVHWMKQRPEQGLEWIGRIDPAIDNSKYDPKFQGKATITAVSSSNTAYLQLSSLTSEDTAVYYCALYDGYNVYAMDYWGQGTSVTVSS
VL: DIVMTQAAFSNPVTLGTSASISCRSSKNLLHSNGITYLYWYLQRPGQSPQLLIYRASTLASGVPNRFSGSESGTDFTLRISRVEAEDVGVYYCAQLLELPHTFGGGTKLEIK
notes: its making is not described; also called chimeric antibody c35
binds: all assays above

B2: hu23.H5L5 (antibody, V domains shown)
VH: QVQLVQSGAEVKKPGASVKVSCKASGYNLKDTFLHWVRQAPGQGLEWMGRIDPANGNIKYDPKFQGRVTITADTSANTAYMELISLRSEDTAVYYCANSPYYYGSGYRIFDVWGQGTTVTVSS
VL: QIVLTQSPATLSLSPGERATLSCSAFSSVNYMHWYQQKPGQAPRLLIYTTSNLASGIPTRFSGSGSGTSYTLTISSLEPEDFAVYYCQQRSTYPFTFGQGTKLEIK
notes: humanized c23
binds: all assays above

B3: c34 (antibody, V domains shown)
VH: EIQVQQSGPELVKPGASVKVSCKASGYSFTDYNMYWVKQSHGKSLEWIGFIDPYNGYTSYNQKFKGKATLTIDKSSSTAFMHLNSLTSEDSAVYYCAIYGYDDAYYFDYWGQGTTLTVSS
VL: QIVLTQSPAIMSASPGEKVTITCSATSSVSYMHWFRQKPGTSPKLWIYSTSNLASGVPARFSGSGSGTSYSLTISRMAAEDAATYYCQQRITYPFTFGSGTKLEIT
notes: its making is not described; also called chimeric antibody c34
binds: all assays above

B4: Antibody T895 (antibody, V domains shown)
VH: EVQLQQSGPELVKPGASVKMSCKASGYTFTDYNMHWVKQSHGRTLEWIGYIVPLNGGSTFNQKFKGRATLTVNTSSRTAYMELRSLTSEDSAAYYCARGGTRFAYWGQGTLVTVSA
VL: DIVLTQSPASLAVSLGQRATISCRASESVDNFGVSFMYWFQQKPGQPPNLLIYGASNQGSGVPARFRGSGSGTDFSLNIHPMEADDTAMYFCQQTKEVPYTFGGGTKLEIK
notes: also called 31895
binds: all assays above

B5: Antibody 9-8B (antibody, V domains shown)
VH: QIQLVQSGPELKKPGETVKISCKASGYTFTHYGMNWVKQAPGKGLKWMGWINTYTGELTYADDFKGRFAFSLETSASTAYLQINNLKNEDTATYFCARRAYYRYDYVMDYWGQGTSVTVSS
VL: DIVMTQSQKFMSTSVGDRVSVTCKASHNVGTNVAWYQQKPGQSPKALIYSASYRYSGVPGRFTGSGSGTDFTLTISNVQSEDLAEYFCHQYNNYPYTFGGGTKLEIK
binds: all assays above

From patent publication US20210388105A1 (ELPISCIENCE SUZHOU BIOPHARMA, published 2021)
